Results: paper PMC9234707

Assays:
[1] = molecular target: activin B (human (by the printed accession)) (UniProt P09529)
[2] = molecular target: BMP10 (human (by the printed accession)) (UniProt O95393)
[3] = molecular target: BMPR2 GBD-Fc (WT) (human) (UniProt Q13873); experiment: SPR; BIAcore 3000; receptor-Fc (about 500 RU BMPR2-Fc WT or variants, 150 RU ACVR2A-Fc) captured on immobilised anti-human IgG (Fc), CM5 chip; single injections of 80 nM GF, single curve fits, averages of two independent injections; 25 °C; HBS/EPS (0.01 M Hepes, 0.5 M NaCl, 3 mM EDTA, 0.005% Tween 20, pH 7.4) with 0.1% bovine serum albumin; 50 μl/min; 1:1 binding model, KD = kd/ka
Chain of BMPR2 GBD-Fc (WT) (human) (Q13873 whole entry): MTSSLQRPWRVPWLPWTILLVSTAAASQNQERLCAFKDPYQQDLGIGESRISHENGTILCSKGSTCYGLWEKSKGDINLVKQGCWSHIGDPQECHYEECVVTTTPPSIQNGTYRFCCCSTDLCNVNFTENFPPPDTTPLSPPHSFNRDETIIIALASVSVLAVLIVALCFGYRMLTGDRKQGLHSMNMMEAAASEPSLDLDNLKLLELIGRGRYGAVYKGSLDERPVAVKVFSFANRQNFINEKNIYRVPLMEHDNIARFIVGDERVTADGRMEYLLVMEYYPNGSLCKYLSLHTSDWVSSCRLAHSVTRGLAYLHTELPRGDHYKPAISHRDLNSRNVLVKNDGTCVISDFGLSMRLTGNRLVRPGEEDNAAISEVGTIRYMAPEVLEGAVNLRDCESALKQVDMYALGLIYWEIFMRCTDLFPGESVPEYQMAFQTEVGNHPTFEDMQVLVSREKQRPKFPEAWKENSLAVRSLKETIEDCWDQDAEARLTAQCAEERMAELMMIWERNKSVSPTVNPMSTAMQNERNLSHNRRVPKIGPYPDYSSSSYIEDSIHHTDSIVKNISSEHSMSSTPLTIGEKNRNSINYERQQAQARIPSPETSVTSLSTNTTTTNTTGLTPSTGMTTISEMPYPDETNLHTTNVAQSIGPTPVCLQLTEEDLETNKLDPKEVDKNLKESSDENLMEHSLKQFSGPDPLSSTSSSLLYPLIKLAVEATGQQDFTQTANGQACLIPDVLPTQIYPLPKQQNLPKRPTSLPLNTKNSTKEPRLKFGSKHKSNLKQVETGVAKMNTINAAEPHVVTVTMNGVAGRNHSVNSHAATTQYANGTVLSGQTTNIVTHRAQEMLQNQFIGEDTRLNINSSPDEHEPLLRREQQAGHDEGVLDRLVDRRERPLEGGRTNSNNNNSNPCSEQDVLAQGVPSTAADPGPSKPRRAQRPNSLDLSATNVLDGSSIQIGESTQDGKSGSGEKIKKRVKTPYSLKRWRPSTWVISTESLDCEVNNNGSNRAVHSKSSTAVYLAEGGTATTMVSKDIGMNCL

[4] = molecular target: BMP10 (human (by the printed accession)) (UniProt O95393); remark: listed apart in the source
ACVR2A GBD-Fc (human) [5] = molecular target: ACVR2A GBD-Fc (human) (UniProt P27037); experiment: SPR; BIAcore 3000; receptor-Fc captured on immobilised anti-human IgG (Fc), CM5 chip; titration, global fit of 2.5, 5.0, 10.0, 20.0 and 40.0 nM GF injections; 25 °C; HBS/EPS (0.01 M Hepes, 0.5 M NaCl, 3 mM EDTA, 0.005% Tween 20, pH 7.4) with 0.1% bovine serum albumin; 50 μl/min; 1:1 binding model, KD = kd/ka
Chain of ACVR2A GBD-Fc (human) (P27037 whole entry): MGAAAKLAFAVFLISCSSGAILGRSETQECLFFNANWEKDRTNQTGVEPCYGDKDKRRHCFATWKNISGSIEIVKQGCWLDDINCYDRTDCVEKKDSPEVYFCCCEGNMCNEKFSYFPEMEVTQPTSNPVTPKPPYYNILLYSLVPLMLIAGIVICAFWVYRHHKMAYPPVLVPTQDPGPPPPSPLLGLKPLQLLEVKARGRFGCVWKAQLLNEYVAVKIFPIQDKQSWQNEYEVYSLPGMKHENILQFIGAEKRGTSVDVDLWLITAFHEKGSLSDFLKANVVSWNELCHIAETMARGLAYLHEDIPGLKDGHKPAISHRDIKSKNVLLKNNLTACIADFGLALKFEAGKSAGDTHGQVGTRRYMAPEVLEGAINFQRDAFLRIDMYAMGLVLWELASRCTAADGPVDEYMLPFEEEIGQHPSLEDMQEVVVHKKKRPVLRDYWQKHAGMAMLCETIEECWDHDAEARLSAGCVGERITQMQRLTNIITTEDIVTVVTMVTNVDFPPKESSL

ACVR2A GBD-Fc (human) [6] = molecular target: ACVR2A GBD-Fc (human) (UniProt P27037); experiment: SPR; BIAcore 3000; receptor-Fc (about 500 RU BMPR2-Fc WT or variants, 150 RU ACVR2A-Fc) captured on immobilised anti-human IgG (Fc), CM5 chip; single injections of 80 nM GF, single curve fits, averages of two independent injections; 25 °C; HBS/EPS (0.01 M Hepes, 0.5 M NaCl, 3 mM EDTA, 0.005% Tween 20, pH 7.4) with 0.1% bovine serum albumin; 50 μl/min; 1:1 binding model, KD = kd/ka

Chain of BMP10 (human (by the printed accession)) (O95393 317-424): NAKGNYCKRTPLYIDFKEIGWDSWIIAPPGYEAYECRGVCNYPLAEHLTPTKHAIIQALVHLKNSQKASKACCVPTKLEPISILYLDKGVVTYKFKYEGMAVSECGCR
Chain of BMP7 (P18075 293-431): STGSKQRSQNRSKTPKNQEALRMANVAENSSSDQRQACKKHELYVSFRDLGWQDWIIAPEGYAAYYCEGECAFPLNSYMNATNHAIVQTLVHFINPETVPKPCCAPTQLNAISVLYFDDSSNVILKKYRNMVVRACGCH
Chain of activin B (human (by the printed accession)) (P09529 293-407): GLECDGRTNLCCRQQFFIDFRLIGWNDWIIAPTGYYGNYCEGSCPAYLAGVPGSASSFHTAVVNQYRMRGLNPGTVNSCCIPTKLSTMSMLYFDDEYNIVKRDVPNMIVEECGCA

“ACVR2A GBD-Fc (from UniProt P27037 20-120) (Fc fusion)” gave an IC50 of inhibition of signalling by 5 nM activin B in stably transfected HEK293 SBE (SMAD2/3) luciferase reporter cells, 0-400 nM receptor-Fc [1] of 14 nM and an IC50 of inhibition of signalling by 5 nM BMP10 in stably transfected HEK293 BRE (SMAD1/5/8) luciferase reporter cells, 0-400 nM receptor-Fc [2] of 187 nM.
“BMP7 (from UniProt P18075 293-431) (ligand)” was tested, and the Kd [3] was 13 nM, the koff [3] was 0.0071 s⁻¹ and the kon [3] was 520000 M⁻¹ s⁻¹.
Substance “BMPR2 GBD-Fc (WT) (from UniProt Q13873 27-138) (Fc fusion)” has an IC50 of inhibition of signalling by 5 nM BMP10 in stably transfected HEK293 BRE (SMAD1/5/8) luciferase reporter cells, 0-400 nM receptor-Fc [2] of 35 nM.
Substance “BMPR2-Fc variant G47D (from UniProt Q13873 27-138) (Fc fusion)” has an IC50 of inhibition of signalling by 5 nM BMP10 in stably transfected HEK293 reporter cells [4] of 10 nM.
“BMPR2-Fc variant Q42R (from UniProt Q13873 27-138) (Fc fusion)” showed an IC50 of inhibition of signalling by 5 nM BMP10 in stably transfected HEK293 reporter cells [4] of 54 nM.
Work on “BMPR2-Fc variant Q92H (from UniProt Q13873 27-138) (Fc fusion)” yielded an IC50 of inhibition of signalling by 5 nM BMP10 in stably transfected HEK293 reporter cells [4] of 10 nM.
“BMPR2-Fc variant S107P (from UniProt Q13873 27-138) (Fc fusion)” was tested, and the IC50 of inhibition of signalling by 5 nM BMP10 in stably transfected HEK293 reporter cells [4] was 7 nM.
Work on “activin A (from UniProt P08476 311-426) (ligand)” yielded a Kd (ACVR2A GBD-Fc (human) [5]) of 0.018 nM, a koff (ACVR2A GBD-Fc (human) [5]) of 1.2e-05 s⁻¹ and a kon (ACVR2A GBD-Fc (human) [5]) of 600000 M⁻¹ s⁻¹. It also gave a Kd (ACVR2A GBD-Fc (human) [6]) of 0.09 nM, a koff (ACVR2A GBD-Fc (human) [6]) of 0.00019 s⁻¹ and a kon (ACVR2A GBD-Fc (human) [6]) of 2.1e+06 M⁻¹ s⁻¹. For the same substance, the Kd [3] was 9.6 nM, the koff [3] was 0.0036 s⁻¹ and the kon [3] was 370000 M⁻¹ s⁻¹.
